Assay results as given in US20230250176A1.

Legend:
[1] = target: purified recombinant human FcγRI (human) (UniProt P12314); assay: SPR (Biacore 8K), 25 C
[2] = target: purified recombinant human FcγRIIa H131 (human) (UniProt P12318); assay: SPR (Biacore 8K), 25 C
Chain of purified recombinant human FcγRIIa H131 (human) (P12318 36-218 limits assumed): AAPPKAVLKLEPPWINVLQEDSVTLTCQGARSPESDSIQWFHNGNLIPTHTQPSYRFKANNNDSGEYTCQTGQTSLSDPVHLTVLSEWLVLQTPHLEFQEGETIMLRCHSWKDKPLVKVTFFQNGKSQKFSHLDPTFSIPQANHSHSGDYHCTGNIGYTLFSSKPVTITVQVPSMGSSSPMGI

Row | Substance | Kd [1] | Kd [2]
1 | cetuximab (antibody) | 0.0073 µM | 
2 | panitumumab (antibody) |  | 1.1 µM
